No end group written: not given here. *: point of attachment. Biotin = O=C1N[C@H]2[C@H](CS[C@H]2CCCCC(=O)*)N1
Key:
asyn_113-127_124P = molecular target: T1, asyn_113-127_124P (human); test: Ala-scan peptide ELISA, row E, run 2
T1 construct: substitution is already in the entry; also called pep14
T1 peptide: Biotin-LEDMPVDPDNEPYEM

asyn_113-127_126A [1] = molecular target: T2, asyn_113-127_126A (human); test: Ala-scan peptide ELISA, row E, run 2
T2 construct: substitution is already in the entry; also called pep16
T2 peptide: Biotin-LEDMPVDPDNEAYAM

asyn_113-127_125A [2] = molecular target: T3, asyn_113-127_125A (human); test: Ala-scan peptide ELISA, row E, run 2
T3 construct: substitution is already in the entry; also called pep15
T3 peptide: Biotin-LEDMPVDPDNEAAEM

asyn_113-127_113A [3] = molecular target: T4, asyn_113-127_113A (human); test: Ala-scan peptide ELISA, row E, run 2
T4 construct: substitution is already in the entry; also called pep2
T4 peptide: Biotin-AEDMPVDPDNEAYEM

asyn_113-127_114A = molecular target: T5, asyn_113-127_114A (human); test: Ala-scan peptide ELISA, row E, run 2
T5 construct: substitution is already in the entry; also called pep3
T5 peptide: Biotin-LADMPVDPDNEAYEM

asyn_113-127_120A [4] = molecular target: T6, asyn_113-127_120A (human); test: Ala-scan peptide ELISA, row E, run 2
T6 construct: substitution is already in the entry; also called pep9
T6 peptide: Biotin-LEDMPVDADNEAYEM

asyn_113-127 = molecular target: T7, asyn_113-127 (human); test: Ala-scan peptide ELISA, row E, run 2
T7 construct: also called pep1
T7 peptide: Biotin-LEDMPVDPDNEAYEM

asyn_113-127_117A [5] = molecular target: T8, asyn_113-127_117A (human); test: Ala-scan peptide ELISA, row E, run 2
T8 construct: substitution is already in the entry; also called pep6
T8 peptide: Biotin-LEDMAVDPDNEAYEM

asyn_113-127_124G = molecular target: T9, asyn_113-127_124G (human); test: Ala-scan peptide ELISA, row E, run 2
T9 construct: substitution is already in the entry; also called pep13
T9 peptide: Biotin-LEDMPVDPDNEGYEM

asyn_113-127_127A [6] = molecular target: T10, asyn_113-127_127A (human); test: Ala-scan peptide ELISA, row E, run 2
T10 construct: substitution is already in the entry; also called pep17
T10 peptide: Biotin-LEDMPVDPDNEAYEA

asyn_113-127_119A [7] = molecular target: T11, asyn_113-127_119A (human); test: Ala-scan peptide ELISA, row E, run 2
T11 construct: substitution is already in the entry; also called pep8
T11 peptide: Biotin-LEDMPVAPDNEAYEM

asyn_113-127_118A [8] = molecular target: T12, asyn_113-127_118A (human); test: Ala-scan peptide ELISA, row E, run 2
T12 construct: substitution is already in the entry; also called pep7
T12 peptide: Biotin-LEDMPADPDNEAYEM

asyn_113-127_122A [9] = molecular target: T13, asyn_113-127_122A (human); test: Ala-scan peptide ELISA, row E, run 2
T13 construct: substitution is already in the entry; also called pep11
T13 peptide: Biotin-LEDMPVDPDAEAYEM

[10] = molecular target: biotinylated human alpha-synuclein (human, UniProt P37840 1-140); test: Ala-scan peptide ELISA, row E, run 2
asyn_113-127_116A [11] = molecular target: T14, asyn_113-127_116A (human); test: Ala-scan peptide ELISA, row E, run 2
T14 construct: substitution is already in the entry; also called pep5
T14 peptide: Biotin-LEDAPVDPDNEAYEM

asyn_113-127_123A [12] = molecular target: T15, asyn_113-127_123A (human); test: Ala-scan peptide ELISA, row E, run 2
T15 construct: substitution is already in the entry; also called pep12
T15 peptide: Biotin-LEDMPVDPDNAAYEM

asyn_113-127_121A [13] = molecular target: T16, asyn_113-127_121A (human); test: Ala-scan peptide ELISA, row E, run 2
T16 construct: substitution is already in the entry; also called pep10
T16 peptide: Biotin-LEDMPVDPANEAYEM

asyn_113-127_115A [14] = molecular target: T17, asyn_113-127_115A (human); test: Ala-scan peptide ELISA, row E, run 2
T17 construct: substitution is already in the entry; also called pep4
T17 peptide: Biotin-LEAMPVDPDNEAYEM

[15] = molecular target: human alpha-synuclein pre-formed fibrils (human, UniProt P37840 1-140); test: competition ELISA: fibrils titrated in solution against 0.6 nM antibody, free antibody read on aSyn-coated plate
asyn_113-127_126A [16] = molecular target: T2, asyn_113-127_126A; test: Ala-scan peptide ELISA, row C, run 1
asyn_113-127_125A [17] = molecular target: T3, asyn_113-127_125A; test: Ala-scan peptide ELISA, row C, run 1
asyn_113-127_113A [18] = molecular target: T4, asyn_113-127_113A; test: Ala-scan peptide ELISA, row C, run 1
asyn_113-127_120A [19] = molecular target: T6, asyn_113-127_120A; test: Ala-scan peptide ELISA, row C, run 1
asyn_113-127_117A [20] = molecular target: T8, asyn_113-127_117A; test: Ala-scan peptide ELISA, row C, run 1
asyn_113-127_127A [21] = molecular target: T10, asyn_113-127_127A; test: Ala-scan peptide ELISA, row C, run 1
asyn_113-127_119A [22] = molecular target: T11, asyn_113-127_119A; test: Ala-scan peptide ELISA, row C, run 1
asyn_113-127_118A [23] = molecular target: T12, asyn_113-127_118A; test: Ala-scan peptide ELISA, row C, run 1
asyn_113-127_122A [24] = molecular target: T13, asyn_113-127_122A; test: Ala-scan peptide ELISA, row C, run 1
asyn_113-127_116A [25] = molecular target: T14, asyn_113-127_116A; test: Ala-scan peptide ELISA, row C, run 1
asyn_113-127_123A [26] = molecular target: T15, asyn_113-127_123A; test: Ala-scan peptide ELISA, row C, run 1
asyn_113-127_121A [27] = molecular target: T16, asyn_113-127_121A; test: Ala-scan peptide ELISA, row C, run 1
asyn_113-127_115A [28] = molecular target: T17, asyn_113-127_115A; test: Ala-scan peptide ELISA, row C, run 1
asyn_113-127_113A [29] = molecular target: T4, asyn_113-127_113A; test: Ala-scan peptide ELISA, row C, run 2
asyn_113-127_127A [30] = molecular target: T10, asyn_113-127_127A; test: Ala-scan peptide ELISA, row C, run 2
asyn_113-127_123A [31] = molecular target: T15, asyn_113-127_123A; test: Ala-scan peptide ELISA, row C, run 2

A450 (asyn_113-127_124P): 0.047 OD
A450 (asyn_113-127_126A [1]): 0.272 OD
A450 (asyn_113-127_125A [2]): 0.049 OD
A450 (asyn_113-127_113A [3]): 0.237 OD
A450 (asyn_113-127_114A): 0.243 OD
A450 (asyn_113-127_120A [4]): 0.15 OD
A450 (asyn_113-127): 0.242 OD
A450 (asyn_113-127_117A [5]): 0.267 OD
A450 (asyn_113-127_124G): 0.215 OD
A450 (asyn_113-127_127A [6]): 0.279 OD
A450 (asyn_113-127_119A [7]): 0.045 OD
A450 (asyn_113-127_118A [8]): 0.256 OD
A450 (asyn_113-127_122A [9]): 0.05 OD
A450 [10]: 0.531 OD
A450 (asyn_113-127_116A [11]): 0.247 OD
A450 (asyn_113-127_123A [12]): 0.259 OD
A450 (asyn_113-127_121A [13]): 0.223 OD
A450 (asyn_113-127_115A [14]): 0.145 OD
IC50 [15]: 1.73 nM
A450 (asyn_113-127_126A [16]): 0.371 OD
A450 (asyn_113-127_125A [17]): 0.049 OD
A450 (asyn_113-127_113A [18]): 0.498 OD
A450 (asyn_113-127_120A [19]): 0.323 OD
A450 (asyn_113-127_117A [20]): 0.494 OD
A450 (asyn_113-127_127A [21]): 0.379 OD
A450 (asyn_113-127_119A [22]): 0.059 OD
A450 (asyn_113-127_118A [23]): 0.403 OD
A450 (asyn_113-127_122A [24]): 0.052 OD
A450 (asyn_113-127_116A [25]): 0.48 OD
A450 (asyn_113-127_123A [26]): 0.476 OD
A450 (asyn_113-127_121A [27]): 0.443 OD
A450 (asyn_113-127_115A [28]): 0.417 OD
A450 (asyn_113-127_113A [29]): 0.377 OD
A450 (asyn_113-127_127A [30]): 0.443 OD
A450 (asyn_113-127_123A [31]): 0.377 OD
B1: 20H4 (antibody, rat IgG2b, V domains shown)
VH: AVQLVESGGGLVQPKESLKISCAASGFTFSNAAMYWVRQAPGKGLELLARIRTKPNNYATYHADSVKGRFTISRDDSQSMVYLHMGNLKTEDTAMYYCTADMATGDYWGPGVMVTVSS
VL: DIQMTQSPPVLSVSVGDRVTLSCKASQNINKNLDWYQQKHGEAPKPLIYSTNNLQTGVPSRFSGSGSGTDYTLTISSLQPEDVATYYCYQYKSAWTFGGGTKLELR
notes: also called clone 20H4; rat 20H4
